Data on one protein can be found in patent US20080274954.

The series concerns the target Cdc42 (SEQ ID NO: 12) expressed as an N-terminal 3x FLAG-tagged protein.

B1: sh04009DH/PH protein (SEQ ID NO: 6) with FLAG-tag (3x) at the C-terminal (protein)
chain: MEELSENSSSTPSEEQDEEASQSRHRHCENKQQMRTNVIREIMDTERVYIKHLRDICEGYIRQCRKHTGMFTVAQLATIFGNIEDIYKFQRKFLKDLEKQYNKEEPHLSEIGSCFLQNQEGFAIYSEYCNNHPGACLELANLMKQGKYRHFFEACRLLQQMIDIAIDGFLLTPVQKICKYPLQLAELLKYTTQEHGDYSNIKAAYEAMKNVACLINERKRKLESIDKIARWQVSIVGWEGLDILDRSSELIHSGELTKITKQGKSQQRTFFLFDHQLVSCKKDLLRRDMLYYKGRLDMDEMELVDLGDGRDKDCNLSVKNAFKLVSRTTDEVYLFCAKKQEDKARWLQACADERRRVQEDKEMGMEISENQKKLAMLNAQKAGHGKSKGYNRCPVAPPHQGLHPIHQRHITMPTSVPQQQVFGLAEPKRKSSLFWHTFNRLTPFRK
On to B1, for which the “effector pull-down assay: amount of active (GTP-bound) Cdc42 bound to the PAK-1 effector bead, Western blot with anti-FLAG antibody” value is listed as “In the cell lysate (lane 4 in FIG. 2) prepared from the cells in which the sh04009DH/PH protein was co-expressed with Cdc42, the band was detected more strongly that in the cell lysate (lane 2 in FIG. 2) prepared from the cells in which only Cdc42 was expressed”.
